Each block holds one binder with its values, some of them ahead of it.
Tests used:
FcγRIa [1] = biological target: T1, FcγRIa (human, UniProt P12314 16-292); experiment: SPR (Biacore), antibody captured, FcγR as analyte; relative to GpH7-A5/GpH7-B3/GpL16-k0 = 100
T1 construct: extracellular domain; Soluble extracellular domain with C-terminal His tag, used as analyte in Biacore; also called FcgRI; 1a; not shown: His tag attached to the C terminus
Protocol: (§1) The heterodimerized antibodies He Abs in which one of the H chains was introduced with an alteration were assayed for their binding activities to each activating FcγR and inhibitory FcγR according to the method described in Example 4. […] The activating FcγRs in FIGS. 26, 27, 28, and 29 are FcγRIa, FcγRIIa (R), FcγRIIa (H), and FcγRIIIa, respectively.
(§2) Analysis of interaction between objective antibody and the FcγR was carried out using Biacore T100 (GE Healthcare). HBS-EP+ (GE Healthcare) was used as the running buffer, and the measurement temperature was set to 25° C. Chips produced by immobilizing the antigen peptide by the amine coupling method to a Series S Sencor Chip CM5 (GE Healthcare), or alternatively, chips produced by allowing preliminarily biotinylated antigen peptides to interact with and immobilize onto a Series S Sensor Chip SA (certified) (GE Healthcare) were used. Antibodies of interest were captured onto an antigen peptide-immobilized chip, and allowed to interact to each FcγR diluted with running buffer. To regenerate and repeatedly use the chip, the antibodies captured on the chip were washed off by reacting 10 mM glycine-HCl, pH 1.5.
T1 sequence (P12314 16-292): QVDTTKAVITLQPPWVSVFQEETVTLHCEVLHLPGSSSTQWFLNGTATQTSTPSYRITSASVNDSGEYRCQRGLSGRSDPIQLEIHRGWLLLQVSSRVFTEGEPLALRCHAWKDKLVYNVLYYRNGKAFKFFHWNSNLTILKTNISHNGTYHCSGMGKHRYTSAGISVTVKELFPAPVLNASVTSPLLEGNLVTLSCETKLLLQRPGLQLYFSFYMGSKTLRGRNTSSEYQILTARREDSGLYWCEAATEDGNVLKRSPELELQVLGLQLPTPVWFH

FcγRIIb = biological target: T2, FcγRIIb (human, UniProt P31994 43-217); experiment: as above
T2 construct: extracellular domain; Soluble extracellular domain with C-terminal His tag, used as analyte in Biacore; also called FcgRIIb; 2b; not shown: His tag attached to the C terminus
T2 sequence (looked up): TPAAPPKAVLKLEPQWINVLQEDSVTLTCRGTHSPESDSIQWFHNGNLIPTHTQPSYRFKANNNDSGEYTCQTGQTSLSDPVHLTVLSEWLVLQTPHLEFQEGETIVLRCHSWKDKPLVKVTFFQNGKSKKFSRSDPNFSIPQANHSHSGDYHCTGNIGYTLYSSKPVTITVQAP
Protocol: as §1, §2

FcγRIa [2] = biological target: T3, FcγRIa (human, UniProt P12314 16-292); experiment: SPR (Biacore), captured antibody, FcγRIa analyte; relative to HoCon Ab GpH7-B3/GpL16-k0 = 100
T3 construct: extracellular domain; soluble extracellular domain with C-terminal His tag, expressed in FreeStyle293 cells; also called FcgRI; FcgRIa
T3 sequence (P12314 16-292): as the sequence (P12314 16-292) above

B1: GpH7-A5/GpH7-B3 variant S324_06M/GpL16-k0 (antibody, human IgG1, kappa)
heavy 1: not shown
heavy 2: not shown
light: DIVMTQSPLSLPVTPGEPASISCQASESLVHSNRNTYLHWYLQKPGQSPQLLIYKVSNRFSGVPDRFSGSGSGTDFTLKISRVEAEDVGVYYCSQNTHVPPTFGQGTKVEIERTVAAPSVFIFPPSDEQLKSGTASVVCLLNNFYPREAKVQWKVDNALQSGNSQESVTEQDSKDSTYSLSSTLTLSKADYEKHKVYACEVTHQGLSSPVTKSFNRGEC
notes: Heterodimerized anti-glypican-3 IgG1; alteration in the GpH7-B3 chain only; also called He Ab
He/Con_1a (FcγRIa [1]): 99.2 % of control (=100)
He/Con_2b (FcγRIIb): 112 % of control (=100)

B2: GpH7-B3 variant P271_02A/GpL16-k0 (antibody, human IgG1, kappa)
heavy: not shown
light: B1 light
notes: homodimerized IgG1, mutation in both H chains; also called Ho Ab
Ho/Con_1a (FcγRIa [2]): 102 % of control

B4: GpH7-B3 variant I336_04F/GpL16-k0 (antibody, human IgG1, kappa)
heavy: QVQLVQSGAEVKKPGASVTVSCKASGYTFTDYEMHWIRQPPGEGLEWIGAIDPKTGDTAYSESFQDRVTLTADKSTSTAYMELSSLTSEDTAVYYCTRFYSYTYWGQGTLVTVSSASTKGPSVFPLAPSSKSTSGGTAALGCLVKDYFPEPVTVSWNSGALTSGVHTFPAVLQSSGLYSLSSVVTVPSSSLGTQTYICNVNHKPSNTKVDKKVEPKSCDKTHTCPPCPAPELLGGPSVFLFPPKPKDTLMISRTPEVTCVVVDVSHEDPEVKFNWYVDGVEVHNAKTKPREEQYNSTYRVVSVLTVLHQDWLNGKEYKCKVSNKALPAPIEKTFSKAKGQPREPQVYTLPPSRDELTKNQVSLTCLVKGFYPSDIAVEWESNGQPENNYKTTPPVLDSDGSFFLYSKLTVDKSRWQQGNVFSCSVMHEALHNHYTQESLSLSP
light: B1 light
notes: as for B2
Ho/Con_1a (FcγRIa [2]): 104 % of control

B6: GpH7-B3 variant E269_15Y/GpL16-k0 (antibody, human IgG1, kappa)
heavy: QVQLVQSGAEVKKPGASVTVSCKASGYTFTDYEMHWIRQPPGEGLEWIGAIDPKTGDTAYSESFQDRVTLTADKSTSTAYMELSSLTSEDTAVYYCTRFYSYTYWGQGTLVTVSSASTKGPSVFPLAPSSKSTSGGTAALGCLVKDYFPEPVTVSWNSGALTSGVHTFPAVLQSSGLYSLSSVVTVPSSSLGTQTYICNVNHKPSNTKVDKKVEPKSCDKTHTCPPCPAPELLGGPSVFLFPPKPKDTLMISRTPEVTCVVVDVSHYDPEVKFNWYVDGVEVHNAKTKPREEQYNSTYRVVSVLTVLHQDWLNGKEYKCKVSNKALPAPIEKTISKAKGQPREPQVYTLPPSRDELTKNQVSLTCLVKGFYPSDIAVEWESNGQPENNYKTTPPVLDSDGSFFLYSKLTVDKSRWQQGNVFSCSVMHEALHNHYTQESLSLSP
light: B1 light
notes: as for B2
Ho/Con_1a (FcγRIa [2]): 100 % of control

B8: GpH7-B3 variant A330_09D/GpL16-k0 (antibody, human IgG1, kappa)
heavy: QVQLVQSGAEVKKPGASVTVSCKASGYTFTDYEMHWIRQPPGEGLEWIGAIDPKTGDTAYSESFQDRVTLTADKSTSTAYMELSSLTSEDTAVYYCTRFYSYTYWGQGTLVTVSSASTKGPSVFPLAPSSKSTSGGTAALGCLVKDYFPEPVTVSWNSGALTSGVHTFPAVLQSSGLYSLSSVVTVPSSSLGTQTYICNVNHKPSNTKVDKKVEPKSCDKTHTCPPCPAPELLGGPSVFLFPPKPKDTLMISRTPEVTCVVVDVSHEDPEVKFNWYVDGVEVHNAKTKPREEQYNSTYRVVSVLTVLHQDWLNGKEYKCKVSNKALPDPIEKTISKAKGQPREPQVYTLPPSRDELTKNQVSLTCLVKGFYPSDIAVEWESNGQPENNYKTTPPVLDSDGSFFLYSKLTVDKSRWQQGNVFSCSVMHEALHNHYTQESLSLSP
light: B1 light
notes: as for B2
Ho/Con_1a (FcγRIa [2]): 108 % of control

B12: GpH7-A5/GpH7-B3 variant V266_08L/GpL16-k0 (antibody, human IgG1, kappa)
heavy 1: not shown
heavy 2: not shown
light: B1 light
notes: as for B1
He/Con_1a (FcγRIa [1]): 98.1 % of control (=100)
He/Con_2b (FcγRIIb): 236 % of control (=100)

B14: GpH7-B3 variant E333_13S/GpL16-k0 (antibody, human IgG1, kappa)
heavy: not shown
light: B1 light
notes: as for B2
Ho/Con_1a (FcγRIa [2]): 101 % of control

B15: GpH7-B3 variant E333_01G/GpL16-k0 (antibody, human IgG1, kappa)
heavy: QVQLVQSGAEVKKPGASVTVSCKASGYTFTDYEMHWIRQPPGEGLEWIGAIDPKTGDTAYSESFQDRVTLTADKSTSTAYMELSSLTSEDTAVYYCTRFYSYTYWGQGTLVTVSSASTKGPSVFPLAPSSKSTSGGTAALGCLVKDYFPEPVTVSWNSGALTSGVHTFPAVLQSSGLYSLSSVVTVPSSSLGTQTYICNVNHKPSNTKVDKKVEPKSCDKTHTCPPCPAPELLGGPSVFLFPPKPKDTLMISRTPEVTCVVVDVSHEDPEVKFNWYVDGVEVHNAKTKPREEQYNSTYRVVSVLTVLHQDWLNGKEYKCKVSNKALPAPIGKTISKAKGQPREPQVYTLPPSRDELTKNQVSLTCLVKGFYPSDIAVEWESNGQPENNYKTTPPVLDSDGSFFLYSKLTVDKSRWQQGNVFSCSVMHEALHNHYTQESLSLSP
light: B1 light
notes: as for B2
Ho/Con_1a (FcγRIa [2]): 100 % of control

B16: GpH7-B3 variant E269_04F/GpL16-k0 (antibody, human IgG1, kappa)
heavy: not shown
light: B1 light
notes: as for B2
Ho/Con_1a (FcγRIa [2]): 102 % of control

B20: GpH7-B3 variant I336_10E/GpL16-k0 (antibody, human IgG1, kappa)
heavy: not shown
light: B1 light
notes: as for B2
Ho/Con_1a (FcγRIa [2]): 107 % of control

B23: GpH7-B3 variant I336_06M/GpL16-k0 (antibody, human IgG1, kappa)
heavy: not shown
light: B1 light
notes: as for B2
Ho/Con_1a (FcγRIa [2]): 104 % of control

B24: GpH7-A5/GpH7-B3 variant V266_07I/GpL16-k0 (antibody, human IgG1, kappa)
heavy 1: not shown
heavy 2: not shown
light: B1 light
notes: as for B1
He/Con_1a (FcγRIa [1]): 99.3 % of control (=100)
He/Con_2b (FcγRIIb): 152 % of control (=100)

B26: GpH7-B3 variant A330_14T/GpL16-k0 (antibody, human IgG1, kappa)
heavy: not shown
light: B1 light
notes: as for B2
Ho/Con_1a (FcγRIa [2]): 105 % of control

B28: GpH7-B3 variant G236_20W/GpL16-k0 (antibody, human IgG1, kappa)
heavy: not shown
light: B1 light
notes: as for B2
Ho/Con_1a (FcγRIa [2]): 104 % of control

B30: GpH7-B3 variant I336_02A/GpL16-k0 (antibody, human IgG1, kappa)
heavy: not shown
light: B1 light
notes: as for B2
Ho/Con_1a (FcγRIa [2]): 103 % of control

B32: GpH7-B3 variant I336_03V/GpL16-k0 (antibody, human IgG1, kappa)
heavy: not shown
light: B1 light
notes: as for B2
Ho/Con_1a (FcγRIa [2]): 105 % of control

B33: GpH7-B3 variant E269_06M/GpL16-k0 (antibody, human IgG1, kappa)
heavy: not shown
light: B1 light
notes: as for B2
Ho/Con_1a (FcγRIa [2]): 101 % of control

B34: GpH7-B3 variant A327_09D/GpL16-k0 (antibody, human IgG1, kappa)
heavy: not shown
light: B1 light
notes: as for B2
Ho/Con_1a (FcγRIa [2]): 102 % of control

B37: GpH7-B3 variant I336_01G/GpL16-k0 (antibody, human IgG1, kappa)
heavy: not shown
light: B1 light
notes: as for B2
Ho/Con_1a (FcγRIa [2]): 104 % of control

B43: GpH7-B3 variant A330_08L/GpL16-k0 (antibody, human IgG1, kappa)
heavy: not shown
light: B1 light
notes: as for B2
Ho/Con_1a (FcγRIa [2]): 106 % of control

B45: GpH7-B3 variant E269_08L/GpL16-k0 (antibody, human IgG1, kappa)
heavy: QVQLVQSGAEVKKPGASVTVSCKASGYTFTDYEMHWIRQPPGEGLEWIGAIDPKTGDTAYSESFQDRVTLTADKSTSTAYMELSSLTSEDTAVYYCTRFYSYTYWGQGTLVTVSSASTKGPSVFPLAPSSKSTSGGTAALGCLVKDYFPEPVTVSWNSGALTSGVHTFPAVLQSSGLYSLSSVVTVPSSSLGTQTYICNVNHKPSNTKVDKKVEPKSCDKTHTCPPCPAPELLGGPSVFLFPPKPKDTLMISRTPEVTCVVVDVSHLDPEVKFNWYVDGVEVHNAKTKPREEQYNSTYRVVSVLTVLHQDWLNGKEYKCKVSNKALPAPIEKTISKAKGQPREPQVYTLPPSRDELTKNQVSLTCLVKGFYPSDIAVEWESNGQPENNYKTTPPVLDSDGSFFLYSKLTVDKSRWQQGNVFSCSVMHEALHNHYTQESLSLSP
light: B1 light
notes: as for B2
Ho/Con_1a (FcγRIa [2]): 101 % of control

The remaining lines, values ahead:

Ho/Con_1a (FcγRIa [2]): 101 % of control
B3: GpH7-B3 variant Q295_18N/GpL16-k0 (antibody, human IgG1, kappa)
heavy: not shown
light: B1 light
notes: as for B2

Ho/Con_1a (FcγRIa [2]): 101 % of control
B5: GpH7-B3 variant Q295_05P/GpL16-k0 (antibody, human IgG1, kappa)
heavy: not shown
light: B1 light
notes: as for B2

Ho/Con_1a (FcγRIa [2]): 102 % of control
B7: GpH7-B3 variant S267_01G/GpL16-k0 (antibody, human IgG1, kappa)
heavy: not shown
light: B1 light
notes: as for B2

Ho/Con_1a (FcγRIa [2]): 101 % of control
B9: GpH7-B3 variant S239_09D/GpL16-k0 (antibody, human IgG1, kappa)
heavy: not shown
light: B1 light
notes: as for B2

Ho/Con_1a (FcγRIa [2]): 101 % of control
B10: GpH7-B3 variant P271_13S/GpL16-k0 (antibody, human IgG1, kappa)
heavy: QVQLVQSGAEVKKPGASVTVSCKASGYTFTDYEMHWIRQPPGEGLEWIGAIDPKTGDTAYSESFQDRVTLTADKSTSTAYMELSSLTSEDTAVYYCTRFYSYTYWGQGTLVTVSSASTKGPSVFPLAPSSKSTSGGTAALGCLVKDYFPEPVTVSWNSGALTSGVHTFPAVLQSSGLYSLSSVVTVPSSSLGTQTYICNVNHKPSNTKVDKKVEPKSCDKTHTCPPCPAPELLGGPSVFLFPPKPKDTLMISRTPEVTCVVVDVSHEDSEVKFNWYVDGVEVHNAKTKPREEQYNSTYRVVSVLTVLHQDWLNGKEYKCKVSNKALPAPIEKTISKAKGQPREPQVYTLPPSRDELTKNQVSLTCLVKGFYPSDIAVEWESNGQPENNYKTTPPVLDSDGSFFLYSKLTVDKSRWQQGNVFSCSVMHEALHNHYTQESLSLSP
light: B1 light
notes: as for B2

Ho/Con_1a (FcγRIa [2]): 102 % of control
B11: GpH7-B3 variant P271_20W/GpL16-k0 (antibody, human IgG1, kappa)
heavy: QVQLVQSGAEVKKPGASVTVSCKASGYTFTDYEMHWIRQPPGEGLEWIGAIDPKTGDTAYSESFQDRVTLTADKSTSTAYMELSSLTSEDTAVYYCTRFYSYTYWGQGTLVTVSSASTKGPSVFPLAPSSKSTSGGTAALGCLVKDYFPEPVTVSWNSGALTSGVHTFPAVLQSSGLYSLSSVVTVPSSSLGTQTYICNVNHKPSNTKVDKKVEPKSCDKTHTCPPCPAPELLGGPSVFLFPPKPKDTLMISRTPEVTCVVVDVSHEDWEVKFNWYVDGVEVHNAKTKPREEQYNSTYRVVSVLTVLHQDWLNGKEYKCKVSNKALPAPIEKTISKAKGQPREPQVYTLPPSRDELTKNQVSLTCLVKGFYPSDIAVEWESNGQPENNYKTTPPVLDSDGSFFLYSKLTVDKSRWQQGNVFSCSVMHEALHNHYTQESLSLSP
light: B1 light
notes: as for B2

Ho/Con_1a (FcγRIa [2]): 102 % of control
B13: GpH7-B3 variant P271_07I/GpL16-k0 (antibody, human IgG1, kappa)
heavy: not shown
light: B1 light
notes: as for B2

Ho/Con_1a (FcγRIa [2]): 107 % of control
B17: GpH7-B3 variant K334_10E/GpL16-k0 (antibody, human IgG1, kappa)
heavy: not shown
light: B1 light
notes: as for B2

Ho/Con_1a (FcγRIa [2]): 100 % of control
B18: GpH7-B3 variant P271_04F/GpL16-k0 (antibody, human IgG1, kappa)
heavy: not shown
light: B1 light
notes: as for B2

Ho/Con_1a (FcγRIa [2]): 102 % of control
B19: GpH7-B3 variant Q295_03V/GpL16-k0 (antibody, human IgG1, kappa)
heavy: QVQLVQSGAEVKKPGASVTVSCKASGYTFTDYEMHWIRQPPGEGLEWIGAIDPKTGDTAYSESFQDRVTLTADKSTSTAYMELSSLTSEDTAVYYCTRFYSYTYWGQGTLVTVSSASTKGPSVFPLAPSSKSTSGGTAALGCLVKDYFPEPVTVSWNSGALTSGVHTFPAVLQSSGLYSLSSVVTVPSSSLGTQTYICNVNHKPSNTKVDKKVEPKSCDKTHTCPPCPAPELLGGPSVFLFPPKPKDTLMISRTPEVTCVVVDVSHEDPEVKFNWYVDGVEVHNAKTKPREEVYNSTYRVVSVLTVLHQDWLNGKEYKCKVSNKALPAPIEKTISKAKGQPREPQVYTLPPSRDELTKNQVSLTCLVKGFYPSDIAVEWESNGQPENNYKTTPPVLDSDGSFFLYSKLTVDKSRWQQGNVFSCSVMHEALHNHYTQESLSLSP
light: B1 light
notes: as for B2

Ho/Con_1a (FcγRIa [2]): 103 % of control
B21: GpH7-B3 variant K326_14T/GpL16-k0 (antibody, human IgG1, kappa)
heavy: not shown
light: B1 light
notes: as for B2

Ho/Con_1a (FcγRIa [2]): 101 % of control
B22: GpH7-B3 variant P271_11K/GpL16-k0 (antibody, human IgG1, kappa)
heavy: not shown
light: B1 light
notes: as for B2

Ho/Con_1a (FcγRIa [2]): 101 % of control
B25: GpH7-B3 variant P271_12R/GpL16-k0 (antibody, human IgG1, kappa)
heavy: not shown
light: B1 light
notes: as for B2

Ho/Con_1a (FcγRIa [2]): 101 % of control
B27: GpH7-B3 variant Q295_13S/GpL16-k0 (antibody, human IgG1, kappa)
heavy: not shown
light: B1 light
notes: as for B2

Ho/Con_1a (FcγRIa [2]): 104 % of control
B29: GpH7-B3 variant I336_18N/GpL16-k0 (antibody, human IgG1, kappa)
heavy: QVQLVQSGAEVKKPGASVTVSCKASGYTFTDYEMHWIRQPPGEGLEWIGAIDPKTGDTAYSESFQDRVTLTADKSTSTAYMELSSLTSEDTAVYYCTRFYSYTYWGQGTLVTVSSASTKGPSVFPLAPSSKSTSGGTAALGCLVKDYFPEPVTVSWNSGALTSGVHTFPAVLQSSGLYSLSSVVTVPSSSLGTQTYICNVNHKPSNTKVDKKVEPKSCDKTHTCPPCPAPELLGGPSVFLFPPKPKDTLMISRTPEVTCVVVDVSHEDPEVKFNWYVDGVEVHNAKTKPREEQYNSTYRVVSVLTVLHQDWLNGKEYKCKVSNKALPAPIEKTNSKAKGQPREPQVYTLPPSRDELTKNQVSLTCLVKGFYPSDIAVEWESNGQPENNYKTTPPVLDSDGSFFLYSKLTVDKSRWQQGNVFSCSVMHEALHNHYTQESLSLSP
light: B1 light
notes: as for B2

Ho/Con_1a (FcγRIa [2]): 104 % of control
B31: GpH7-B3 variant Q295_02A/GpL16-k0 (antibody, human IgG1, kappa)
heavy: not shown
light: B1 light
notes: as for B2

Ho/Con_1a (FcγRIa [2]): 101 % of control
B35: GpH7-B3 variant K326_15Y/GpL16-k0 (antibody, human IgG1, kappa)
heavy: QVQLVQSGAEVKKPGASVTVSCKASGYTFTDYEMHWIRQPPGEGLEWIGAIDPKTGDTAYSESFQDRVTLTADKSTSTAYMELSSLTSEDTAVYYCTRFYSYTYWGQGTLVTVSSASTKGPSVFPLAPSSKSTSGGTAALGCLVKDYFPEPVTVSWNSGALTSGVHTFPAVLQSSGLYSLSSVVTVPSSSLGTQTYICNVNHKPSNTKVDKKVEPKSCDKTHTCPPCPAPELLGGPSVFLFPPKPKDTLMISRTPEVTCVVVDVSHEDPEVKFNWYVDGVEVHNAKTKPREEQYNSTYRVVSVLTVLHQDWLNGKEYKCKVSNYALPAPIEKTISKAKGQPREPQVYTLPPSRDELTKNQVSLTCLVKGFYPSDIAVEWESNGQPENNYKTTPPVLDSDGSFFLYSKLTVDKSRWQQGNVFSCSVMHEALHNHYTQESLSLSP
light: B1 light
notes: as for B2

Ho/Con_1a (FcγRIa [2]): 108 % of control
B36: GpH7-B3 variant S267_02A/GpL16-k0 (antibody, human IgG1, kappa)
heavy: not shown
light: B1 light
notes: as for B2

Ho/Con_1a (FcγRIa [2]): 102 % of control
B38: GpH7-B3 variant P271_03V/GpL16-k0 (antibody, human IgG1, kappa)
heavy: not shown
light: B1 light
notes: as for B2

Ho/Con_1a (FcγRIa [2]): 100 % of control
B39: GpH7-B3 variant Q295_04F/GpL16-k0 (antibody, human IgG1, kappa)
heavy: not shown
light: B1 light
notes: as for B2

Ho/Con_1a (FcγRIa [2]): 102 % of control
B40: GpH7-B3 variant P271_06M/GpL16-k0 (antibody, human IgG1, kappa)
heavy: not shown
light: B1 light
notes: as for B2

Ho/Con_1a (FcγRIa [2]): 102 % of control
B41: GpH7-B3 variant Q295_14T/GpL16-k0 (antibody, human IgG1, kappa)
heavy: not shown
light: B1 light
notes: as for B2

Ho/Con_1a (FcγRIa [2]): 101 % of control
B42: GpH7-B3 variant K326_16H/GpL16-k0 (antibody, human IgG1, kappa)
heavy: not shown
light: B1 light
notes: as for B2

Ho/Con_1a (FcγRIa [2]): 101 % of control
B44: GpH7-B3 variant Q295_07I/GpL16-k0 (antibody, human IgG1, kappa)
heavy: not shown
light: B1 light
notes: as for B2

Ho/Con_1a (FcγRIa [2]): 101 % of control
B46: GpH7-B3 variant S239_01G/GpL16-k0 (antibody, human IgG1, kappa)
heavy: not shown
light: B1 light
notes: as for B2
